B2: NTD-αB crystallin fusion protein (other)
chain: MGSRVQIRCRFRNSTRDIAIHHPWIRRPFFPFHSPSRLFDQFFGEHLLESDLFPTSTSLSPFYLRPPSFLRAPSWFDTGLSEMRLEKDRFSVNLDVKHFSPEELKVKVLGDVIEVHGKHEERQDEHGFISREFHRKYRIPADVDPLTITSSLSSDGVLTVNGPRKQVSGPERTIPITREEKPAVTAAPKK
notes: also called NTD-HSPB5; A B NgC

What was measured:
[1] = molecular target: B2; assay: subunit exchange: AlexaFluor-labeled NTD-αB crystallin with 10-fold molar excess of unlabeled αB crystallin at 37° C., size exclusion FPLC, fluorescence of fractions
[2] = molecular target: the molecule itself; assay: size exclusion chromatography (Superose 6), self-association into oligomeric complexes
[3] = molecular target: the molecule itself; assay: size exclusion chromatography, self-association into oligomeric complexes

B1: αB-crystallin (HSPB5), no transduction peptide (other)
chain: MDIAIHHPWIRRPFFPFHSPSRLFDQFFGEHLLESDLFPTSTSLSPFYLRPPSFLRAPSWFDTGLSEMRLEKDRFSVNLDVKHFSPEELKVKVLGDVIEVHGKHEERQDEHGFISREFHRKYRIPADVDPLTITSSLSSDGVLTVNGPRKQVSGPERTIPITREEKPAVTAAPKK
notes: also called native αB crystallin; unfused αB crystallin
binding result [1]: binds

B2
binding result [2]: binds

B3: NTD-αA crystallin fusion protein (other)
chain: MGSRVQIRCRFRNSTRDVTIQHPWFKRTLGPFYPSRLFDQFFGEGLFEYDLLPFLSSTISPYYRQSLFRTVLDSGISEVRSDRDKFVIFLDVKHFSPEDLTVKVQDDFVEIHGKHNERQDDHGYISREFHRRYRLPSNVDQSALSCSLSADGMLTFCGPKIQTGLDATHAERAIPVSREEKPTSAPSS
notes: also called NTD modified α-crystallin subunit (αA)
binding result [3]: binds

Source: US20140235553A1 (REGENTS OF THE UNIVERSITY OF COLORADO A BODY CORPRATE, published 2014)
